Test results from the Immune Epitope Database (IEDB).

Assays:
HLA-A*01:01 = assay: IEDB peptide-MHC binding, purified MHC/direct/fluorescence; filed as Kd, often an IC50 or EC50 that approximates it; ≥ and ≤ were set here for values at or beyond the usual limits of such assays
HLA-A*02:01 = assay: as above
HLA-A*03:01 = assay: as above; settings: source organism: Marburg virus - Musoke, Kenya, 1980
HLA-A*11:01 = assay: as above; settings: source organism: Marburg virus - Musoke, Kenya, 1980
HLA-A*31:01 = assay: as above; settings: source organism: Marburg virus - Musoke, Kenya, 1980
HLA-A*68:02 = assay: as above
HLA-B*07:02 [1] = assay: as above; settings: source organism: Marburg virus - Musoke, Kenya, 1980
HLA-B*08:02 = assay: as above
HLA-B*15:01 [2] = assay: as above; settings: source organism: Marburg virus - Musoke, Kenya, 1980
HLA-B*15:17 [3] = assay: as above; settings: source organism: Marburg virus - Musoke, Kenya, 1980
HLA-B*18:01 [4] = assay: as above; settings: source organism: Marburg virus - Musoke, Kenya, 1980
HLA-B*27:05 [5] = assay: as above; settings: source organism: Marburg virus - Musoke, Kenya, 1980
HLA-B*40:01 = assay: as above
HLA-B*46:01 = assay: as above
HLA-B*48:01 = assay: as above; settings: source organism: Marburg virus - Musoke, Kenya, 1980
HLA-B*57:01 = assay: as above
HLA-B*58:01 = assay: as above
HLA-A*26:03 = assay: IEDB peptide-MHC binding, purified MHC/competitive/fluorescence; filed as Kd, often an IC50 or EC50 that approximates it; ≥ and ≤ were set here for values at or beyond the usual limits of such assays; settings: source organism: Orthomarburgvirus marburgense
HLA-B*40:02 = assay: IEDB peptide-MHC binding, cellular MHC/competitive/fluorescence; ≥ and ≤ were set here for values at or beyond the usual limits of such assays; settings: source organism: Homo sapiens
HLA-A*26:01 = assay: IEDB peptide-MHC binding, purified MHC/direct/fluorescence; filed as Kd, often an IC50 or EC50 that approximates it; ≥ and ≤ were set here for values at or beyond the usual limits of such assays; settings: source organism: Variola virus
HLA-A*26:02 = assay: as above; settings: source organism: Variola virus
HLA-A*69:01 = assay: as above; settings: source organism: Cowpox virus
HLA-B*08:01 = assay: as above; settings: source organism: Variola virus
HLA-B*15:09 = assay: as above; settings: source organism: Variola virus
HLA-B*39:01 = assay: as above; settings: source organism: Cowpox virus
HLA-B*07:02 [6] = assay: IEDB peptide-MHC binding, purified MHC/competitive/fluorescence; filed as Kd, often an IC50 or EC50 that approximates it; ≥ and ≤ were set here for values at or beyond the usual limits of such assays; settings: source organism: Vaccinia virus Copenhagen
HLA-B*15:01 [7] = assay: as above; settings: source organism: Vaccinia virus Copenhagen
HLA-B*15:17 [8] = assay: as above; settings: source organism: Vaccinia virus Copenhagen
HLA-B*18:01 [9] = assay: as above; settings: source organism: Vaccinia virus Copenhagen
HLA-B*27:05 [10] = assay: as above; settings: source organism: Vaccinia virus Copenhagen
HLA-B*35:01 = assay: as above; settings: source organism: Vaccinia virus Copenhagen
[11] = source organism: Marburg virus - Musoke, Kenya, 1980

Work on IISTNTLGK yielded a Kd (HLA-A*01:01; [11]) of at least 20 µM, a Kd (HLA-A*02:01; [11]) of at least 20 µM and a Kd (HLA-A*03:01) of 0.249 µM. The Kd (HLA-A*11:01) was 0.129 µM, the Kd (HLA-A*31:01) was at least 20 µM and the Kd (HLA-A*68:02; [11]) was at least 20 µM. The Kd (HLA-B*07:02 [1]) was at least 20 µM, the Kd (HLA-B*08:02; source organism: Ravn virus - Ravn, Kenya, 1987) was at least 20 µM and the Kd (HLA-B*15:01 [2]) was at least 20 µM. It also gave a Kd (HLA-B*15:17 [3]) of at least 20 µM, a Kd (HLA-B*18:01 [4]) of at least 20 µM and a Kd (HLA-B*27:05 [5]) of at least 20 µM. The Kd (HLA-B*40:01; [11]) was at least 20 µM, the Kd (HLA-B*46:01; [11]) was at least 20 µM and the Kd (HLA-B*48:01) was at least 20 µM. For the same sequence, the Kd (HLA-B*57:01; [11]) was at least 20 µM, the Kd (HLA-B*58:01; [11]) was at least 20 µM and the Kd (HLA-A*26:03) was at least 20 µM.
With REGSFRVTT the IC50 (HLA-B*40:02) was 1.9 µM.
Work on YHRFGLYRL yielded a Kd (HLA-A*01:01; source organism: Cowpox virus) of at least 20 µM, a Kd (HLA-A*02:01; source organism: Cowpox virus) of at least 20 µM and a Kd (HLA-A*26:01) of at least 20 µM. The Kd (HLA-A*26:02) was at least 20 µM, the Kd (HLA-A*68:02; source organism: Cowpox virus) was at least 20 µM and the Kd (HLA-A*69:01) was at least 20 µM. It also gave a Kd (HLA-B*08:01) of at least 20 µM, a Kd (HLA-B*08:02; source organism: Variola virus) of at least 20 µM and a Kd (HLA-B*15:09) of 2.43 µM. For the same sequence, the Kd (HLA-B*39:01) was 5.05 µM, the Kd (HLA-B*40:01; source organism: Cowpox virus) was at least 20 µM and the Kd (HLA-B*46:01; source organism: Cowpox virus) was at least 20 µM. The Kd (HLA-B*57:01; source organism: Cowpox virus) was at least 20 µM, the Kd (HLA-B*58:01; source organism: Cowpox virus) was at least 20 µM and the Kd (HLA-B*07:02 [6]) was at least 20 µM. It also gave a Kd (HLA-B*15:01 [7]) of at least 20 µM, a Kd (HLA-B*15:17 [8]) of at least 20 µM and a Kd (HLA-B*18:01 [9]) of 2.66 µM. The Kd (HLA-B*27:05 [10]) was at least 20 µM and the Kd (HLA-B*35:01) was 2.7 µM.
